Laboratory results taken from US20070178531A1 (BIOCHECK, published 2007).
Positions count from the first letter of the chain named.

B1: rabbit monoclonal anti-human Id3, clone #BCH-4/#3-3 (antibody, V domains shown)
VH: QSVEESGGRLVTPGTPLTLTCTVSGIDLSSYAMSWVRQAPGKGLEWIGVIFPSNNVYYASWAKGRFTISKTSTTVDLKITSPTTEDTATYFCASMGAFDSWGPGTLVTVSS
VL: QVLTQTPSPVSAAVGGTVTINCQASQSIYNDNDLAWFQQKPGQPPKLLIYDASTLTSGVPSRFKGSGSGTQFTLTISDLDCDDAATYYCAARYSGNIYGFGGGTEVVVK
notes: Rabbit IgG from a rabbit hybridoma; also called h Id3 MoAb 3-3
B2: rabbit monoclonal anti-mouse/human Id3, clone #BCH-4/#16-1 (antibody, V domains shown)
VH: QSVEESGGRLVTPGTPLTLTCTASGFSLSSYYIHWVRQAPGKALEWIGYISDGGTTYYASWAKGRFTISKTSSTTVDLKMTSLTTEDTATYFCARQGFNIWGPGTLVTVSL
VL: AVLTQTPSPVSAAVGGTVTISCQSSQSVYNNNWLSWFQQKSGQPPKLLIYETSKLESGVPSRFKGSGSGTQFTLTIIDVQCDDAATYYCLGGYWTTSDNNIFGGGTEVVVK
notes: Rabbit IgG from a rabbit hybridoma; also called m/h Id3 MoAb 16-1
B3: rabbit monoclonal anti-mouse/human Id3, clone #BCH-4/#17-3 (antibody, V domains shown)
VH: B2 VH with S30N, Y31V, A43G, G54D, T56A, Y57R, S60T, D77N
VL: B2 VL with T19S, Y29W, S41P, I77S, I101V
notes: Rabbit IgG from a rabbit hybridoma; also called m/h Id3 MoAb 17-3; BCH-3/#17-3
B4: rabbit monoclonal anti-mouse/human Id3, clone #BCH-4/#6-1 (antibody, V domains shown)
VH: B2 VH with S30N, Y31V, A43G, G54D, T56A, Y57R, S60T, D77N
VL: B2 VL with T19S, Y29W, S41P, I77S, I101V
notes: Rabbit IgG from a rabbit hybridoma; also called m/h Id3 MoAb 6-1
B5: rabbit monoclonal anti-mouse/human Id3, clone #BCH-4/#42-1 (antibody, V domains shown)
VH: B2 VH
VL: B2 VL with T95S
notes: Rabbit IgG from a rabbit hybridoma; also called m/h Id3 MoAb 42-1

Key:
[1] = molecular target: T1, glutathione S-transferase (GST) (UniProt P08515 1-218 = GST); experiment: ELISA, Ab 0.250 µg/ml
T1 construct: also called carrier protein GST
T1 sequence (P08515 whole entry): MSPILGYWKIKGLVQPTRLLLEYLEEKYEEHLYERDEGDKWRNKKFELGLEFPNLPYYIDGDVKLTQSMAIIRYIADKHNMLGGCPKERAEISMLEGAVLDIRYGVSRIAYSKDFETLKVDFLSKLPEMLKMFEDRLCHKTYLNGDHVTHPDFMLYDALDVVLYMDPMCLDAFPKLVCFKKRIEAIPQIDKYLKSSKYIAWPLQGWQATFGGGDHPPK
Procedure: (§1) The rabbit monoclonal anti-human Id3 (clone #3-3) and the rabbit monoclonal anti-mouse/human Id3 (clones #6-1, 16-1, 17-3, and 42-1) produced in Example 6 were tested reactivity against the following antigens: mouse Id1:His, human Id1:His, mouse Id2:His, human Id2:His, mouse Id3:His, human Id3:His, mouse Id4:His, human Id4:His and GST.
(§2) 1. Microtiter wells (prepared in accordance with Example 6) were coated (0.1 μg/well) with mouse Id1:His, human Id1:His, human Id2:His, human Id3:His, and 1.0 μg/well with GST. [0155] 2. Antibody Diluent: 0.25% (w/v) BSA in 0.015M KPO₄ Buffer, 0.85% (w/v) NaCl, 0.1% (w/v) NaN₃, pH=7.40 [0156] 3. Rabbit monoclonal anti-human Id3 (clone #3-3) prepared in Example 7 was diluted to […] with the antibody diluent. […] 4. Rabbit monoclonal anti-mouse/human Id3 (clones #6-1, 16-1, 17-3, 42-1) prepared in Example 7 was diluted to 0.005, 0.010, 0.025, 0.05, 0.10, 0.25, and 0.50 μg/ml with the antibody diluent. […] 5. Conjugate Diluent: 50% (v/v) which consists of an aqueous solution containing Fetal Bovine Serum in 0.05 M Tris, 1% (v/v) Proclin-300, pH 7.6. [0159] 6. Conjugate: Goat anti-rabbit IgG (H+L)-HRP conjugate. [0160] 7. TMB reagent. […] 8. Stop solution (1 N HCI). Method
(§3) 1. Dispense 100 μL of antibody diluent, diluted rabbit monoclonal human Id3, and mouse/human Id3 hybridoma supernatants into appropriate wells. […] 2. Incubate at room temperature with mechanical shaking at 750 rpm for 90 minutes. [0165] 3. Remove the incubation mixture by flicking plate content into an appropriate waste container followed by rinsing the wells 5 times with distilled water. [0166] 4. Strike the wells sharply onto absorbent paper or paper towels to remove all residual water droplets. [0167] 5. Dispense 100 μL of 1:50,000 Goat Anti-Rabbit IgG-HRP Conjugate Reagent into each well. Gently mix for 5 seconds. [0168] 6. Incubate at room temperature with mechanical shaking at 750 rpm for 90 minutes. [0169] 7. Repeat procedures 3 and 4. [0170] 8. Dispense 100 μL of TMB Reagent into each well. Gently mix for 5 seconds. [0171] 9. Incubate at room temperature with mechanical shaking at 750 rpm for 20 minutes. […] 10.

[2] = molecular target: T2, Mouse Id1: Histidine (mouse, UniProt P20067-2 1-148, limits assumed); experiment: ELISA, Ab 0.250 µg/ml
T2 construct: Fusion protein made in E. coli from vector pGW07; also called m-Id1-His; not shown: His tag
T2 sequence (looked up): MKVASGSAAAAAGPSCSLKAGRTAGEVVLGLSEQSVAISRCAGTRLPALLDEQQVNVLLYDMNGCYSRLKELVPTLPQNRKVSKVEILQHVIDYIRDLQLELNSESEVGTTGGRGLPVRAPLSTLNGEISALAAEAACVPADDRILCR
Procedure: as §1, §2, §3

[3] = molecular target: T3, Human Id1: Histidine (human, UniProt P41134 1-155, limits assumed); experiment: ELISA, Ab 0.250 µg/ml
T3 construct: Fusion protein made in E. coli from vector pGW07; also called h-Id1: his; not shown: His tag
T3 sequence (looked up): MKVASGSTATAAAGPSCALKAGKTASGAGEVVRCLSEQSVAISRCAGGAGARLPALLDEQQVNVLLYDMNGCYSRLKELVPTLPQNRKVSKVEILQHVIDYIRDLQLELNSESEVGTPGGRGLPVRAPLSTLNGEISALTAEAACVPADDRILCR
Procedure: as §1, §2, §3

[4] = molecular target: T1, glutathione S-transferase (GST); experiment: ELISA, Ab 0.025 µg/ml
[5] = molecular target: T4, Human Id2: Histidine (human, UniProt Q02363 1-134, limits assumed); experiment: ELISA, Ab 0.005 µg/ml
T4 construct: Fusion protein made in E. coli from vector pGW07; also called h-Id2: His; not shown: His tag
T4 sequence (looked up): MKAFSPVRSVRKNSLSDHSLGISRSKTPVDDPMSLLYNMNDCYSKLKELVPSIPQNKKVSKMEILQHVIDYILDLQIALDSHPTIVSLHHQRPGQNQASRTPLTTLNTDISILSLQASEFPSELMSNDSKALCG
Procedure: as §1, §2, §3

[6] = molecular target: T2, Mouse Id1: Histidine; experiment: ELISA, Ab 0.005 µg/ml
Procedure: as §1, §2, §3

[7] = molecular target: T5, Mouse Id2: Histidine (mouse, UniProt P41136 1-134, limits assumed); experiment: ELISA, Ab 0.005 µg/ml
T5 construct: Fusion protein made in E. coli from vector pGW07; also called m-Id2: His; not shown: His tag
T5 sequence (looked up): T4 sequence (looked up) with S60T, A131V
Procedure: as §1, §2, §3

[8] = molecular target: T3, Human Id1: Histidine; experiment: ELISA, Ab 0.005 µg/ml
Procedure: as §1, §2, §3

[9] = molecular target: T6, Mouse Id3: Histidine (mouse, UniProt P41133 1-119); experiment: ELISA, Ab 0.250 µg/ml
T6 construct: Fusion protein made in E. coli from vector pGW07; also called m-Id3: His; Mouse Id3 (coated wells); not shown: His tag
T6 sequence: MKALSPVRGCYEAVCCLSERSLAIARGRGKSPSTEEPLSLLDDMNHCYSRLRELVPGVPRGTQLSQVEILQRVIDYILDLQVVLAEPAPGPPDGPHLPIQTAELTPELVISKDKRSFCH
Procedure: as §1, §2, §3

[10] = molecular target: T7, Human Id3: Histidine (human, UniProt Q02535 1-119 at identity 1.00)); experiment: ELISA, Ab 0.005 µg/ml
T7 construct: Fusion protein made in E. coli from vector pGW07; also called h-Id3: His; Human Id3 (coated wells); not shown: His tag
T7 chain: T6 sequence with S31G, S33A, T34A, T105A, K112N
Procedure: as §1, §2, §3

[11] = molecular target: T6, Mouse Id3: Histidine; experiment: ELISA, Ab 0.005 µg/ml
Procedure: as §1, §2, §3

| Binder | A450 [1] | A450 [2] | A450 [3] | A450 [4] | A450 [5] | A450 [6] | A450 [7] | A450 [8] | A450 [9] | A450 [10] | A450 [11] |
| --- | --- | --- | --- | --- | --- | --- | --- | --- | --- | --- | --- |
| B1 | 0.048 A450 | 0.048 A450 | 0.047 A450 | 0.048 A450 | 0.044 A450 | 0.044 A450 | 0.048 A450 | 0.047 A450 | – | – | – |
| B2 | 0.048 A450 | 0.047 A450 | 0.045 A450 | 0.048 A450 | 0.046 A450 | 0.046 A450 | 0.045 A450 | 0.042 A450 | 3.21 A450 | 0.228 A450 | 0.24 A450 |
| B3 | 0.052 A450 | 0.052 A450 | 0.045 A450 | 0.045 A450 | 0.045 A450 | 0.048 A450 | 0.052 A450 | 0.044 A450 | 3.62 A450 | 0.33 A450 | 0.39 A450 |
| B4 | 0.051 A450 | 0.048 A450 | 0.051 A450 | 0.049 A450 | 0.045 A450 | 0.047 A450 | 0.046 A450 | 0.044 A450 | 3.42 A450 | 0.275 A450 | 0.312 A450 |
| B5 | 0.051 A450 | 0.054 A450 | 0.044 A450 | 0.045 A450 | 0.043 A450 | 0.045 A450 | 0.05 A450 | 0.046 A450 | 3.55 A450 | 0.382 A450 | 0.437 A450 |
